Measured values reported in PMC5036782 (Biophysics, 2011).

Columns and labels:
Test in all cases: NMR titration; 1H-13C HSQC of selectively [13C]-methyl-Met labelled CaM or variant, Ca2+-bound form compared with the complex with skMLCKp; 20 mM phosphate, 100 mM KCl, 10 mM CaCl2, pH 7.0, 25°C, about 0.6 mM protein, 800 MHz
Conditions in all cases: both partners purified
[1] = molecular target: intact chicken calmodulin (CCM0) (chicken, UniProt P62149 1-149)
[2] = molecular target: CCMΔ5, chicken calmodulin lacking the last five residues (M144 to K148) (chicken, UniProt P62149 1-144)
[3] = molecular target: CCMΔ4, chicken calmodulin lacking the last four residues (M145 to K148) (chicken, UniProt P62149 1-145)

Measured: binding result

B1: skMLCKp, 26-residue peptide encompassing the CaM-binding region of skeletal muscle myosin light-chain kinase (peptide)
peptide: KRRWKKNFIAVSAANRFKKISSSGAL
binds: all assays above
